Laboratory results reported in patent US20250002574A1.

Biological target: IL-11 (UniProt P20809)
Assay: ELISA on IL-11, positive control antibody ab130083

IL-11, sequence (P20809 22-199 limits assumed): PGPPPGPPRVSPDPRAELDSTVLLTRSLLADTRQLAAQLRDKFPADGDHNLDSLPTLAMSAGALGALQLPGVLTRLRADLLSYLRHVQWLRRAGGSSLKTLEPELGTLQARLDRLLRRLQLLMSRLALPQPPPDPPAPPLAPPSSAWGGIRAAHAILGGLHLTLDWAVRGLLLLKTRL

OD(450 nm) value: 3.62 OD450
Substance: 6D9A1 (Abcam, ab130083) (antibody)
